Columns and labels:
[1] = molecular target: T1, human iC3b (human, UniProt P01024 23-667; P01024 749-1303; P01024 1321-1663); assay: sandwich ELISA: chicken anti-C3 capture antibody on the plate, iC3b captured, A209 as detecting antibody, goat anti-mouse-HRP, ABTS
T1 construct: Bought purified protein; three chains held together by disulfide bonds; also called purified human iC3b (Complement Technology #A115)

[2] = molecular target: T1, human iC3b; assay: sandwich ELISA; reference C3b
[3] = molecular target: T2, human C3 (human, UniProt P01024 23-667; P01024 672-1663); assay: Biacore, antibody captured on anti-mouse CM5 chip, antigen in solution
T2 construct: Bought purified protein; also called C3 (Complement Technology #A113)

[4] = molecular target: T1, human iC3b; assay: as above
[5] = molecular target: T1, human iC3b; assay: Biacore, antibody captured on anti-mouse CM5 chip
[6] = molecular target: T1, human iC3b; assay: Biacore (SPR); reference C3b
[7] = molecular target: T1, human iC3b; assay: sandwich ELISA, antigen captured by chicken anti-C3 antibody

T1 sequence (P01024 23-667 limits assumed, chain 1 of 3): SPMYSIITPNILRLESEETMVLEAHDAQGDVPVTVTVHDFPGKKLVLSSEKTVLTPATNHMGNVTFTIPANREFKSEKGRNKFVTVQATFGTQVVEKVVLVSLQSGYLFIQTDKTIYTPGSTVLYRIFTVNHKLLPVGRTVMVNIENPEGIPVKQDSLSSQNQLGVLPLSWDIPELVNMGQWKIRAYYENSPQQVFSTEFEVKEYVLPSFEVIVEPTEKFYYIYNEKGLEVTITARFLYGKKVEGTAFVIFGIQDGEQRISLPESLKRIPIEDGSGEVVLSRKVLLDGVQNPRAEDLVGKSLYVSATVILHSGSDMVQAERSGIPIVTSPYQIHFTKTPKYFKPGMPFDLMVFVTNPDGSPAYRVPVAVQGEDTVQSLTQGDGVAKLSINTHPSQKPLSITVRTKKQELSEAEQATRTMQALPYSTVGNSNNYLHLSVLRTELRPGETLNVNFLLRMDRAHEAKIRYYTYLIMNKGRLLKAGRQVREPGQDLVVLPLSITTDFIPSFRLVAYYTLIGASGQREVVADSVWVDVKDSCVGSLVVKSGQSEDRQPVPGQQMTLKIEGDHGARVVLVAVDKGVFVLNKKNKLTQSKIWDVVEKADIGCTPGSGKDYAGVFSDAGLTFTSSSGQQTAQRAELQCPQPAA
T1 sequence (P01024 749-1303 limits assumed, chain 2 of 3): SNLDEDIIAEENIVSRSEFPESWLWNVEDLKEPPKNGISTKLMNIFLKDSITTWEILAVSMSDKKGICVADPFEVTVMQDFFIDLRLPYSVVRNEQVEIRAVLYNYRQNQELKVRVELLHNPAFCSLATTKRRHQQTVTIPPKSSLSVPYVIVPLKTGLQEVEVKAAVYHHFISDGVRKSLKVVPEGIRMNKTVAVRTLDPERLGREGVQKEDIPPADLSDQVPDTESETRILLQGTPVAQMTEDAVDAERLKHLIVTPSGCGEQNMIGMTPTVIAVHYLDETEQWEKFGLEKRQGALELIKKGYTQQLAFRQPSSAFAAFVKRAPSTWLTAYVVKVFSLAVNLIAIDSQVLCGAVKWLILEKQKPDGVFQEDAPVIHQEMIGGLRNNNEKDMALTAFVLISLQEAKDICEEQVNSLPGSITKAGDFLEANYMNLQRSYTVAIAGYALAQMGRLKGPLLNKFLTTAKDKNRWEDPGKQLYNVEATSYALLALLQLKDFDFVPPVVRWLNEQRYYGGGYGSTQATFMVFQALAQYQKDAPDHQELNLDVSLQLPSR
T1 sequence (P01024 1321-1663 limits assumed, chain 3 of 3): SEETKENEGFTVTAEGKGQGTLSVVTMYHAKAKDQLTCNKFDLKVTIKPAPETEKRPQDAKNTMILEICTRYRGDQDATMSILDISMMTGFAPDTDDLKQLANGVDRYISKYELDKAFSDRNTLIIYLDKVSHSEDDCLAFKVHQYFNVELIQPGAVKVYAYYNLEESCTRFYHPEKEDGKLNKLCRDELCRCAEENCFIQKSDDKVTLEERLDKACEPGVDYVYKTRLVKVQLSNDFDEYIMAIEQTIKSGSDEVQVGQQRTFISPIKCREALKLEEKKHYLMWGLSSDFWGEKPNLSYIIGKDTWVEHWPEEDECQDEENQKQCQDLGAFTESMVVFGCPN
T2 sequence (P01024 23-667, chain 1 of 2): as the sequence (P01024 23-667 limits assumed, chain 1 of 3) above
T2 sequence (P01024 672-1663, chain 2 of 2): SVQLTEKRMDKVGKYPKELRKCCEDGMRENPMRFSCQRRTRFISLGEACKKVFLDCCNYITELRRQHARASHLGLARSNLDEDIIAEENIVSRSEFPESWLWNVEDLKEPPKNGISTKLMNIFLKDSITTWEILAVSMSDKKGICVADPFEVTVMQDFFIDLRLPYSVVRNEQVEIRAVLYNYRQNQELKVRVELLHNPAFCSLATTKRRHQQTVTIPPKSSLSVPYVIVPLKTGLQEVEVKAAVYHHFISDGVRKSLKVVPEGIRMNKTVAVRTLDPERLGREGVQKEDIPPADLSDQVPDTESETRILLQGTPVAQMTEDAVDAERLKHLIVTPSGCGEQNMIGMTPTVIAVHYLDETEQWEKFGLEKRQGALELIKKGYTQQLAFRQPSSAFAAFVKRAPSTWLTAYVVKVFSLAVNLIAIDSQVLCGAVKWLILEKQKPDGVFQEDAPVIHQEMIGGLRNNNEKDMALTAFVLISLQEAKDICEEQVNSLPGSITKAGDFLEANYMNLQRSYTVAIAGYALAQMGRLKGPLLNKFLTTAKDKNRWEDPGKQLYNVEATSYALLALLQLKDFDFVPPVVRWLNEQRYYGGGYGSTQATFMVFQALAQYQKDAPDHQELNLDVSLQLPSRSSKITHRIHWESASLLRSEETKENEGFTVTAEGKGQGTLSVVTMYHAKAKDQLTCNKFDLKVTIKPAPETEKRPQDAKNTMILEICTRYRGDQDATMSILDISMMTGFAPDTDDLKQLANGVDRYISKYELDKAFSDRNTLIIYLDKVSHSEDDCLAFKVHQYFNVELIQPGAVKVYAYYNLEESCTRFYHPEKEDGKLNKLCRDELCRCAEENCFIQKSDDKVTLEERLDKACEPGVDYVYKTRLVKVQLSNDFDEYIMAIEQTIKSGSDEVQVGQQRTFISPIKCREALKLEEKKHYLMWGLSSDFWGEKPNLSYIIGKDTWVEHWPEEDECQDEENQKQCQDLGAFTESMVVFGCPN

| EC50 (read off the curve) [1] | fold higher affinity constant for iC3b than C3b [2] | Kd [3] | Kd [4] | fold difference in KD, iC3b relative to C3 [5] | fold higher affinity constant for iC3b than C3b [6] | fold specificity for iC3b vs. C3 or C3b [7] | Molecule |
| --- | --- | --- | --- | --- | --- | --- | --- |
| 0.03 µg/mL |  |  |  |  |  |  | A209 antibody (Quidel) |
|  | ≥ 2 fold | 2100 nM | 43.3 nM | > 10 fold | ≥ 10 fold | > 2 fold | mouse monoclonal antibody 6G1 (antibody, V domains shown) VH: QIQLVQSGPELKKPGETVKISCKASGYTFTNYGMNWVKQAPGKDLKWMGWINTYTGEPRYADEFKGRFAFSLETSASTAYLQINNLKNEDMATYFCAKGGYPHYYSMDYWGQGTSVTVSS VL: DIQMTQSTSSLSASLGDRVTISCRASQDINNYLNWYQQKPDGTIKLLIYYTSKLHSGVPSRFSGSGSGRDYSLTISNLEQEDIATYFCQQGNTLPRTFGGGTKLEIKR |
|  | ≥ 2 fold |  |  |  | ≥ 10 fold | > 2 fold | mouse monoclonal antibody 5D2 (antibody, V domains shown) VH: EVQLQQSGPELVKPGASVKISCKASGYTFTDNYYMNWVKQSHGKSLEWIGHIYPNNGVTSYNQKFRGKATLTVDKSSNSAYMELRSLTSEDSALYYCARNKLLSLYWYFDVWGTGTSVTVSS VL: DIQMTQSSSSFSVFLGDRITITCRASVDIYNRLAWFQQKPGNAPRLLISGATSLATGVPSRFSGSGSGKDYTLSITSLQTEDVTIYYCQQYWSTPWTFGGGTKLEIKR |

— patent publication US20140186371A1 (published 2014)
